Kd data for one molecule are collected here from paper PMC9636508, “Reciprocal interactions among Cobll1, PACSIN2, and SH3BP1 regulate drug resistance in chronic myeloid leukemia” (Cancer Medicine, 2022).

A word on the Kd: it is the constant that tells how readily two partners part at equilibrium. The low end stands for tighter binding, the high end for weaker binding.

Assay [1] concerns the target T1, Cobll1-NT-f (N-terminal region of Cobll1, residues 1-410) (UniProt Q53SF7 1-410).
T1 construct: Cobll1 N-terminal region, residues 1-410, cloned into pGEX-4T-1; source: E. coli BL21-CodonPlus (DE3), purified (GST column, tag cleavage, ion exchange, Superdex)
Description: SPR; PACSIN2 SH3 domain immobilised on a PEG chip by amine coupling (Reichert SR7500DC); 25°C; PBS (10 mM KH2PO4, 137 mM NaCl, 2.7 mM KCl, pH 7.4); 3 min association, 10 min dissociation. Conditions: both partners purified. A general note: In SPR one partner is held on a chip, and binding of the other changes the refractive index at the surface.

Assay [2] addresses T2, SH3BP1-CT (C-terminal region of SH3BP1, residues 541-701) (UniProt Q9Y3L3 541-701).
T2 construct: SH3BP1 C-terminal region containing all proline-rich motifs, residues 541-701, cloned into pET-21a; also called SH3PB1-CT; source: E. coli BL21-CodonPlus (DE3), purified (Ni column, Superdex 75)
T2 sequence (looked up): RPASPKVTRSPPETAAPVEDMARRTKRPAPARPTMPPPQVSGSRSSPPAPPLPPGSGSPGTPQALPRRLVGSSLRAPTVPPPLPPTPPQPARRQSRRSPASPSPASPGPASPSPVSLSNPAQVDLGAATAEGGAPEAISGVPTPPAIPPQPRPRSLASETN
The assay is described as above. Conditions: both partners purified.

T1 sequence (Q53SF7 1-410): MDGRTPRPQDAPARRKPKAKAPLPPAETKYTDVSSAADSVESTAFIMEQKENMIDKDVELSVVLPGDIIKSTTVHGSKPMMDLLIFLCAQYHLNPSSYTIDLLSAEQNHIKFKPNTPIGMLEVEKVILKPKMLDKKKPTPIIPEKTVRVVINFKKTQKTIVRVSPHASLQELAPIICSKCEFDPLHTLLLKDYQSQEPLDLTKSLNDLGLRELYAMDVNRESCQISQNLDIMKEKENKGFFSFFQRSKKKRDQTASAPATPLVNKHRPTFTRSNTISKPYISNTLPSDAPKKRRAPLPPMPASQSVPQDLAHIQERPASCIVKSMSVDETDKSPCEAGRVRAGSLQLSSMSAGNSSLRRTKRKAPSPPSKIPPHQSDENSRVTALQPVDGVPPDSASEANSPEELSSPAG

B1: PACSIN2 SH3 domain (residues 430-486), purified (domain or fragment)
chain: not shown
notes: 15N- or 15N,13C-labelled for NMR, unlabelled for SPR; source: E. coli BL21-CodonPlus (DE3), purified (GST column, tag cleavage, ion exchange, Superdex)
In the case of B1, the Kd worked out at 25.8 nM in assay [1] and 2200 nM in assay [2].
